Read-outs that look alike come from different tables or passages of the source.
Assays:
[1] = target: T1, EGFR (UniProt P00533 25-1210, limits assumed); assay: flow cytometry, serial dilution on T-47-D cells (EGFR-expressing), PE anti-His detection
T1 construct: whole, on cells; the cell lines are human tumor lines
Method: (§1) Binding analysis of scDb and scDb-scFv was performed by flow cytometry using tumor cell lines with different EGFR-expression levels (Table 7). Adherent cells were washed with PBS and shortly trypsinized at 37° C. Trypsin was quenched with FCS-containing medium and removed by centrifugation (500×g, 5 min.). 1×10⁵ target cells/well (FaDu, Lim1215, T-47-D and SKBR-3) were incubated with a serial dilution of scDb or scDb-scFv for 1 h at 4° C. After removing excess of recombinant protein by washing with PBA (PBS, 2% FBS, and 0.02% sodium azide), bound protein was detected using PE-conjugated anti-hexahistidyl tag mAb (Miltenyi Biotec). Fluorescence was measured using MACSquant Analyzer 10 (Miltenyi Biotec) and data were analyzed using FlowJo (Tree Star). Relative median fluorescence intensities (MFI) were calculated as followed: relative MFI=((MFIₛₐₘₚₗₑ-(MFIdetection-MFIcells))/MFIcells).

[2] = target: T2, CD3 (UniProt P07766 23-207); assay: flow cytometry, serial dilution on Jurkat cells (CD3-expressing), PE anti-His detection
T2 construct: whole, on cells; on cells it stands in the TCR/CD3 complex; also called CD3 on Jurkat cells

[3] = target: T1, EGFR; assay: flow cytometry, serial dilution on LIM1215 cells (EGFR-expressing), PE anti-His detection
Method: as §1

[4] = target: T1, EGFR; assay: flow cytometry, serial dilution on FaDu cells (EGFR-expressing), PE anti-His detection
Method: as §1

[5] = target: T1, EGFR; assay: flow cytometry, serial dilution on SKBR-3 cells (EGFR-expressing), PE anti-His detection
Method: as §1

[6] = target: T1, EGFR; assay: cell-based or functional assay
[7] = target: T3, HER3 (UniProt P21860 20-1342, limits assumed); assay: flow cytometry, serial dilution on LIM1215 cells (HER3-expressing), PE anti-His detection
T3 construct: whole, on cells; the cell lines are human tumor lines
Method: (§2) Cell binding studies were performed by flow cytometry using cell lines with different expression levels of HER3 (Table 1). Adherent cells were washed with PBS and shortly trypsinized at 37° C. Trypsin was quenched with FCS-containing medium and removed by centrifugation (500×g, 5 min.). 1×10⁵ target cells (MCF-7, Jurkat, BT-474, FaDu, or LIM1215) were incubated with a serial dilution of recombinant proteins for 1 hour at 4° C. Bound protein was detected using a PE-conjugated anti-hexahistidyl tag mAb (Miltenyi Biotec). Incubation and washing steps were performed in PBS, 2% FBS, and 0.02% sodium azide. Fluorescence was measured by MACSQuant VYB (Miltenyi Biotec) and data were analyzed using FlowJo (Tree Star). Relative median fluorescence intensities (MFI) were calculated as followed: relative MFI=((MFIₛₐₘₚₗₑ−(MFIdetection−MFIcells))/MFIcells).

[8] = target: T3, HER3; assay: cell-based or functional assay
[9] = target: T3, HER3; assay: cell-based or functional assay; remark: listed apart in the source
[10] = target: T2, CD3; assay: flow cytometry, serial dilution on Jurkat cells (CD3-expressing), PE anti-His detection; remark: listed apart in the source
Method: as §2

[11] = target: T3, HER3; assay: flow cytometry, serial dilution on FaDu cells (HER3-expressing), PE anti-His detection
Method: as §2

[12] = target: T3, HER3; assay: flow cytometry, serial dilution on MCF-7 cells (HER3-expressing), PE anti-His detection
Method: as §2

[13] = target: T3, HER3; assay: flow cytometry, serial dilution on BT-474 cells (HER3-expressing), PE anti-His detection
Method: as §2

[14] = target: T3, HER3; assay: flow cytometry on HER3-expressing cell lines, EC50 compared with scDb-scFv
Method: as §2

Binder	EC50 [1]	EC50 [2]	EC50 [3]	EC50 [4]	EC50 [5]	EC50 of PBMC cytotoxicity on FaDu cells, E:T 10:1 [6]	EC50 of PBMC cytotoxicity on LIM1215 cells, E:T 10:1 [6]	EC50 of PBMC cytotoxicity on SKBR-3 cells, E:T 10:1 [6]	EC50 of PBMC cytotoxicity on T-47-D cells, E:T 10:1 [6]	EC50 [7]	EC50 of PBMC cytotoxicity on BT-474 cells, E:T 5:1 [8]	EC50 of PBMC cytotoxicity on BT-474 cells, E:T 10:1 [8]	EC50 of PBMC cytotoxicity on FaDu cells, E:T 5:1 [8]	EC50 of PBMC cytotoxicity on FaDu cells, E:T 10:1 [8]	EC50 of PBMC cytotoxicity on LIM1215 cells, E:T 5:1 [8]	EC50 of PBMC cytotoxicity on LIM1215 cells, E:T 10:1 [8]	EC50 of PBMC cytotoxicity on MCF-7 cells, E:T 5:1 [8]	EC50 of PBMC cytotoxicity on MCF-7 cells, E:T 10:1 [8]	EC50 of CD69 expression on CD4+ T-cells (CD4+CD69+), MCF-7 co-culture [9]	EC50 of CD69 expression on CD8+ T-cells (CD8+CD69+), MCF-7 co-culture [9]	also measured
scDbhu225xhuU3-scFvhu225 (bispecific antibody, the end number was counted from the printed lines; The His tag is part of the entry; also called scDb-scFv; trivalent, bispecific bisAb targeting EGFR and CD3) EVQLVESGGGLVQPGGSLRLSCAASGFSLTNYGVHWVRQAPGKGLEWLGVIWSGGNTDYNTPFTSRFTISRDNSKNTLYLQMNSLRAEDTAVYYCARALTYYDYEFAYWGQGTTVTVSSGGGGSDIQMTQSPSSLSASVGDRVTITCRASQDIRNYLNWYQQKPGKAPKLLIYYTSRLHSGVPSRFSGSGSGTDFTFTISSLQPEDIATYYCQQGNTLPWTFGQGTKLEIKRGGGGSGGGGSGGGGSQVQLVQSGAEVKKPGSSVKVSCKASGGTFSGYTMNWVRQAPGQGLEWMGLINPYKGVSTYNGKFKDRVTITADKSTSTAYMELSSLRSEDTAVYYCARSGYYGDSDWYFDVWGQGTLVTVSSGGGGSDIQLTQSPSFLSASVGDRVTITCRASQSIGTNIHWYQQKPGKAPKLLIKYASESISGVPSRFSGSGSGTEFTLTISSLQPEDFATYYCQQNNNWPTTFGAGTKLEIKRAAAGGSGGGGSGGGTEVQLVESGGGLVQPGGSLRLSCAASGFSLTNYGVHWVRQAPGKGLEWLGVIWSGGNTDYNTPFTSRFTISRDNSKNTLYLQMNSLRAEDTAVYYCARALTYYDYEFAYWGQGTTVTVSSGGGGSGGGGSGGGGSDIQLTQSPSFLSASVGDRVTITCRASQSIGTNIHWYQQKPGKAPKLLIKYASESISGVPSRFSGSGSGTEFTLTISSLQPEDFATYYCQQNNNWPTTFGAGTKLEIKRSLHHHHHH	0.09 nM	6.4 nM	0.5 nM	0.5 nM	0.3 nM	0.009 nM	0.007 nM	0.002 nM	0.09 nM												
scDb3-43xhuU3-scFv3-43-His (bispecific antibody, Single chain, trivalent: two HER3 sites (3-43) and one CD3 site (huU3); The His tag is part of the entry; also called scDb-scFv; trivalent anti-HER3×anti-CD3 bsAb) QVQLQQSGPGLVKPSQTLSLTCAISGDSVSSNRAAWNWIRQSPSRGLEWLGRTYYRSKWYNDYAQSLKSRITINPDTPKNQFSLQLNSVTPEDTAVYYCARDGQLGLDALDIWGQGTMVTVSSGGGGSDIQMTQSPSSLSASVGDRVTITCRASQDIRNYLNWYQQKPGKAPKLLIYYTSRLHSGVPSRFSGSGSGTDFTFTISSLQPEDIATYYCQQGNTLPWTFGQGTKLEIKRGGGGSGGGGSGGGGSQVQLVQSGAEVKKPGSSVKVSCKASGGTFSGYTMNWVRQAPGQGLEWMGLINPYKGVSTYNGKFKDRVTITADKSTSTAYMELSSLRSEDTAVYYCARSGYYGDSDWYFDVWGQGTLVTVSSGGGGSQAGLTQPPAVSVAPGQTASITCGRDNIGSRSVHWYQQKPGQAPVLVVYDDSDRPAGIPERFSGSNYENTATLTISRVEAGDEADYYCQVWGITSDHVVFGGGTKLTVLAAAGGSGGGGSGGGTQVQLQQSGPGLVKPSQTLSLTCAISGDSVSSNRAAWNWIRQSPSRGLEWLGRTYYRSKWYNDYAQSLKSRITINPDTPKNQFSLQLNSVTPEDTAVYYCARDGQLGLDALDIWGQGTMVTVSSGGGGSGGGGSGGGGSQAGLTQPPAVSVAPGQTASITCGRDNIGSRSVHWYQQKPGQAPVLVVYDDSDRPAGIPERFSGSNYENTATLTISRVEAGDEADYYCQVWGITSDHVVFGGGTKLTVLGSLHHHHHH										0.2 nM	0.002 nM	0.007 nM	0.2 nM	0.1 nM	0.003 nM	0.001 nM	0.003 nM	0.001 nM	0.003 nM	0.02 nM	EC50 of IFN-γ release, PBMCs co-cultured with MCF-7 cells [9]: 0.567 nM; EC50 of IL-2 release, PBMCs co-cultured with MCF-7 cells [9]: 0.403 nM; EC50 of proliferation of CD4+ T-cells, MCF-7 co-culture [9]: 0.08 nM; EC50 of proliferation of CD8+ T-cells, MCF-7 co-culture [9]: 0.09 nM; EC50 [10]: 4 nM; EC50 [11]: 0.1 nM; EC50 [12]: 0.03 nM; EC50 [13]: 0.2 nM
scDb3-43xhuU3-His (bispecific antibody, Single-chain diabody, bivalent: one HER3 site (3-43) and one CD3 site (huU3, humanized UCHT1); The His tag is part of the entry; also called anti-HER3×CD3 bispecific scDb) QVQLQQSGPGLVKPSQTLSLTCAISGDSVSSNRAAWNWIRQSPSRGLEWLGRTYYRSKWYNDYAQSLKSRITINPDTPKNQFSLQLNSVTPEDTAVYYCARDGQLGLDALDIWGQGTMVTVSSGGGGSDIQMTQSPSSLSASVGDRVTITCRASQDIRNYLNWYQQKPGKAPKLLIYYTSRLHSGVPSRFSGSGSGTDFTFTISSLQPEDIATYYCQQGNTLPWTFGQGTKLEIKRGGGGSGGGGSGGGGSQVQLVQSGAEVKKPGSSVKVSCKASGGTFSGYTMNWVRQAPGQGLEWMGLINPYKGVSTYNGKFKDRVTITADKSTSTAYMELSSLRSEDTAVYYCARSGYYGDSDWYFDVWGQGTLVTVSSGGGGSQAGLTQPPAVSVAPGQTASITCGRDNIGSRSVHWYQQKPGQAPVLVVYDDSDRPAGIPERFSGSNYENTATLTISRVEAGDEADYYCQVWGITSDHVVFGGGTKLTVLAAAHHHHHH										11.7 nM	0.17 nM	0.2 nM	0.4 nM	0.3 nM	0.08 nM	0.03 nM	0.07 nM	0.014 nM	0.1 nM	0.16 nM	EC50 of IFN-γ release, PBMCs co-cultured with MCF-7 cells [9]: 0.609 nM; EC50 of IL-2 release, PBMCs co-cultured with MCF-7 cells [9]: 0.404 nM; EC50 of proliferation of CD4+ T-cells, MCF-7 co-culture [9]: 0.5 nM; EC50 of proliferation of CD8+ T-cells, MCF-7 co-culture [9]: 0.3 nM; EC50 [10]: 1.64 nM; EC50 [12]: 4.7 nM; fold weaker binding than scDb-scFv [14]: ≤ 50 fold; EC50 [13]: 9.7 nM
scDbhu225xhuU3 (bispecific antibody, the end number was counted from the printed lines; The His tag is part of the entry; also called bispecific scDb targeting CD3 and EGFR) EVQLVESGGGLVQPGGSLRLSCAASGFSLTNYGVHWVRQAPGKGLEWLGVIWSGGNTDYNTPFTSRFTISRDNSKNTLYLQMNSLRAEDTAVYYCARALTYYDYEFAYWGQGTTVTVSSGGGGSDIQMTQSPSSLSASVGDRVTITCRASQDIRNYLNWYQQKPGKAPKLLIYYTSRLHSGVPSRFSGSGSGTDFTFTISSLQPEDIATYYCQQGNTLPWTFGQGTKLEIKRGGGGSGGGGSGGGGSQVQLVQSGAEVKKPGSSVKVSCKASGGTFSGYTMNWVRQAPGQGLEWMGLINPYKGVSTYNGKFKDRVTITADKSTSTAYMELSSLRSEDTAVYYCARSGYYGDSDWYFDVWGQGTLVTVSSGGGGSDIQLTQSPSFLSASVGDRVTITCRASQSIGTNIHWYQQKPGKAPKLLIKYASESISGVPSRFSGSGSGTEFTLTISSLQPEDFATYYCQQNNNWPTTFGAGTKLEIKRAAAGGSGGGGSGGGTGGGGSLHHHHHH	1.1 nM	5.4 nM	1.6 nM	1.4 nM	2.3 nM	> 10 nM	> 10 nM	> 10 nM	> 10 nM												

— patent US20220396635A1 (UNIVERSIT T STUTTGART, published 2022)
